Measured values published in the supplement of paper PMC9170038.

What was measured:
MS2 coat protein [1] = assay: apparent KD of MS2 coat protein, switch ON state; designed switch direction (-1 OFF switch, 1 ON switch): -1; higher = weaker reporter binding; conditions: FMN input: 0 or 200 uM; Eterna round: R93 (includes R88 designs)
Summary of the method: (§1)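 SNAP-549-labelled MS2 coat protein was titrated onto designed RNA switches that had been transcribed on-chip from Illumina sequencing clusters. Amounts doubled from 0.7 or 1.5 nM to 3 µM in 100 mM Tris-HCl pH 7.5, 80 mM KCl, 4 mM MgCl2, with constant ligand or without. Apparent KD is the median per design of normalised cluster binding-curve fits.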

MS2 coat protein [2] = assay: apparent KD of MS2 coat protein, switch OFF state (with FMN for OFF switches, without FMN for ON switches); designed switch direction (-1 OFF switch, 1 ON switch): -1; higher = weaker reporter binding; conditions: FMN input: 0 or 200 uM; Eterna round: R93 (includes R88 designs)
Summary of the method: as §1

| Sequence | apparent KD of MS2 coat protein (MS2 coat protein [1]) | apparent KD of MS2 coat protein (MS2 coat protein [2]) |
| --- | --- | --- |
| AGCUAGUCAGGAUAUACGAACAAGUCAAAAGACGAGAACGGACAUGAGGAUCACCCAUGUAGAAGGGACUAGCA [Diamond 7] | 16.1 nM | 13.6 nM |
| AAAUUGUCAGGAUAUCCUAUAAUAAUAAAAUAGAGGAAAUAGGAGAAGGGACAUGAGGAUCACCCAUGUAAAAC [May 84] | 49.2 nM | 37 nM |
| AAAAAACAUGAGGAUCACCCAUGUAAGGAUAUGCUCGGGCGAAAAAGCAAAAAAAAGAGCAGAAGGUACAAAAA [66%, Wbt, 42] | 20.5 nM | 38.7 nM |
| AAGUUAUUAGGAUAUACUUGUGCGAUUAAUACGUUGAUAGUACAUGAGGAUCACCCAUGUAGAAGGAAUAAAAA [JR_Exc002_Sub411] | 38.4 nM | 25.9 nM |
| UUAGAACAUGAGGAUCACCCAUGUGAGGAUAUGCAAUACUAAAAAAAAGAUAAUUAUAGCAGAAGGCACGUAGU [JR_EXc001_Sub805] | 35.1 nM | 41.4 nM |
| AAAACGGCAGGAUAUACAGAUGAGAACUAGACCGAAAAAAAACAUGAGGAUCACCCAUGUAGAAGGGCCAAAAA [Ex2 Malc#7] | 27.8 nM | 36.8 nM |
| AGGGUACAUGAGGAUCACCCAUGUUAGGAUAUUGAAAAGAAAAGAAAAGAAAGAAGAACAAGAAGGGACAAGAA [Userkare] | 56.5 nM | 45.7 nM |
| AAGAAGUGAGGAUAUGCUGCUCGUCACUUGCGUGAUGAGUAGCAGAAGGCACAUGAGGAUCACCCAUGUGGGAA [Modifying Chris (69%) Late G segment, early G segment 3] | 89.1 nM | 110 nM |
| AAGAAGUCAGGAUAUGGUGCUCGUCACUUGCGUGAUGAGUACCAGAAGGGACAUGAGGAUCACCCAUGUAAAGA [Opal 21] | 47.1 nM | 60 nM |
| GGAGGCGAAGGAUAUACAUGAGGAUCACCCAUGUGAGAGAAAAAAGUGAGAAAGAAAAGUAGAAGGUCGUUUCG [salish99-ex3-128] | 43.5 nM | 81 nM |
| UAACAGUCAGGAUAUGGACAAUACAAUACAAACAAAUAAAGCCAGAAGGGACAUGAGGAUCACCCAUGUAAACA [Simple] | 41.6 nM | 23 nM |
| AACAGUACAGGAUAUACAUGAGGAUCACCCAUGUGAAAAUUAAGUGGCGUACCACAAUGUAGAAGGGUACUGAA [Mat - Exclusion 3 - Eli mod - D46] | 103 nM | 232 nM |
| AGGAAACAUGAGGAUCACCCAUGUGAGGAUAUGAACGAAAAUAAAUAAAAAUAAAAGUUCAGAAGGUACAAAAA [66%, Wbt, 5] | 23.6 nM | 36.8 nM |
| AAAAAGUCAGGAUAUGUAGCAUGAUACGAAAGUAUCAUGCUACAGAAGGGACAUGAGGAUCACCCAUGUGAUCA [Ex4: 938] | 365 nM | 33.2 nM |
| AGAAAGUCAGGAUAUAUGCGAAAAAUAAAAAAAAUAAAAACAUAGAAGGGACAUGAGGAUCACCCAUGUUAAGA [Mat - Exclusion 4 - Mayanna - D136] | 50 nM | 32 nM |
| AAAAAGGCAGGAUAUACAUGAGGAUCACCCAUGUAAAGAAAAGAAAGAUCCAAAGAAAGUAGAAGGGCCAAAAA [Ex3 sub 3] | 48.8 nM | 170 nM |
| GGAAAACAUGAGGAUCACCCAUGUGAGGAUAUCCAGGAUAUAGAAGGAGGAUAUAGAAGGAGAAGGCACGAAGG [salish99-ex1-18] | 28.6 nM | 33.1 nM |
| AGUAGUACAGGAUAUACAUGAGGAUCACCCAUGUGAAAAAUAAGUGGCGUACCACAAAGUAGAAGGGUACUACA [Mat - Exclusion 3 - JL mod - D37] | 29.9 nM | 141 nM |
| GGAAAGCGAGGAUAUACAUGAGGAUCACCCAUGUAAAAGAAAAGAAAAGAAAGAAAAUGUAGAAGGCGCAAAAA [Exclusion 3 plus] | 53.5 nM | 54.4 nM |
| CCCUCACAUGAGGAUCACCCAUGUGAGGAUAUGCAUAAAAAAAAAAAAAAAAAAAAAUGCAGAAGGCACAUGAA [jn_irvington] | 13 nM | 11.1 nM |

| Sequence | apparent KD of MS2 coat protein (MS2 coat protein [1]) | apparent KD of MS2 coat protein (MS2 coat protein [2]) |
| --- | --- | --- |
| GUCAGCUGAGGAUAUACAGGUGAUGCCGCAGAACAAAAUAUACAUGAGGAUCACCCAUGUAGAAGGCGGAAGAC [Terian] | 49.4 nM | 44.1 nM |
| AAAACUAGAGGAUAUACGUACAUGUCAAAAGACGUGAAGGGACAUGAGGAUCACCCAUGUAGAAGGCUAGAAAA [JL Stem Breaker 9] | 45.2 nM | 104 nM |
| AACAGUACAGGAUAUACAUGAGGAUCACCCAUGUAAAAAUAAUAAAAGGGAAAAACUCGUAGAAGGGUACUGGA [Moding Maslow revisited (73) 16] | 63.2 nM | 104 nM |
| AACAGUACAGGAUAUACAUGAGGAUCACCCAUGUGAGAAUUAAGUAGAUUGCCACAAAGUAGAAGGGUACUGGA [Ruby 98] | 59.3 nM | 80.9 nM |
| AACAGUACAGGAUAUACAUGAGGAUCACCCAUGUGAAAAUUAAGUGGCGUACCACAAGGUAGAAGGGUACUGGA [Moding Maslow Revisited (73) 27] | 32.7 nM | 129 nM |
| AAAAAGGGAGGAUAUACGAAACAGGGAAACCUGAAAAAGGGACAUGAGGAUCACCCAUGUAGAAGGCCCAAGAA [Clint Eastwood 64% 5] | 40.2 nM | 268 nM |
| AACUGACAUGAGGAUCACCCAUGUCAGGAUAUGCUUCAUAAAACAAAAACAAAAUGAUGCAGAAGGGACAUGAA [Design 26 :P Sub-opt 2] | 16.3 nM | 14.6 nM |
| GAAAGGGCAGGAUAUGCAGAGAGAGAGAGAGAGAGAGAGAAACAUGAGGAUCACCCAUGUAGAAGGGCCGAAAG [salish99-ex2-07] | 30.9 nM | 29.2 nM |
| ACCAAUGGAGGAUAUACAUGAGGAUCACCCAUGUUUAUCCUACAUAGGUGAAAAACAUGUAGAAGGCCAUAGGA [EX3 237: Super Stable 37] | 11.1 nM | 12 nM |
| AAGAACGAAGGAUAUACAUGAGGAUCACCCAUGUAAAAGAAAGAAGGGAAAGAGAAAAGUAGAAGGUCGAAGAA [Usermaatre Piye] | 22.2 nM | 24.4 nM |
| AAAAAACAUGAGGAUCACCCAUGUAAGGAUAUGUGAAAAAAAAAAUAAAAAAAAAAAAGCAGAAGGUACAAAAA [LROPPY Exclusion 1 - v01_deltaG=3.64] | 66.5 nM | 74.8 nM |
| AAAAAUCGAGGAUAUACAUGAGGAUCACCCAUGUCAAAAAAUGACUACACAAAAGAAAGUAGAAGGCGAUAAAG [Mat - Exclusion 3 - Mayanna mod - D129] | 25 nM | 36.6 nM |
| AACAGUACAGGAUAUACAUGAGGAUCACCCAUGUGAAAAUUAAGUGGGAAACCACAAUGUAGAAGGGUACUGGA [Mat - Exclusion 3 - Eli mod - D50] | 121 nM | 109 nM |
| AAGAAGUCAGGAUAUGCCAAAGAUCACGAAAGUGACAAAGGGCAGAAGGGACAUGAGGAUCACCCAUGUAAAGA [Opal 3] | 54.7 nM | 62.4 nM |
| AAAAAAGGAGGAUAUACGAACAUGUCGAAAGACGUGAAGGGACAUGAGGAUCACCCAUGUAGAAGGCUUAAAAA [Mat - Exclusion 2 - JL mod - D69] | 37 nM | 23.9 nM |
| CUUAAACAUGAGGAUCACCCAUGUGAGGAUAUGAUGCGAAUAAAGAAAGAAGAAAGCAUCAGAAGGCACAUAUG | 27.7 nM | 129 nM |
| UUCAAGUGAGGAUAUACGAAUAGUAAGUAAGUAUAACAGACGUAGAAGGCACAUGAGGAUCACCCAUGUAAAUA [JR_Exc004_Sub304] | 25.8 nM | 22.5 nM |
| AAAAAACAUGAGGAUCACCCAUGUGAGGAUAUACAAAACCCAUAUAAAAAGGGAAAAAGUAGAAGGCGCAAAAA [wbt round 1 mod 8] | 20.8 nM | 24.3 nM |
| GCUUGGGUAGGAUAUACAUGAGGAUCACCCAUGUGAGAGAAAAAAGUGAGAAAGAAAAGUAGAAGGACUUGAGG [salish99-ex3-83] | 177 nM | 174 nM |
| AACAGUACAGGAUAUACAUGAGGAUCACCCAUGUGGGUGUUAAGUGGCGUACCACAAAGUAGAAGGGUACUGGA [JL In the Red CG] | 327 nM | 106 nM |
